The record followed here is PMC7913696.

Experiment [1] concerns the target T1, PrimPol WT (human) (UniProt Q96LW4).
T1 sequence: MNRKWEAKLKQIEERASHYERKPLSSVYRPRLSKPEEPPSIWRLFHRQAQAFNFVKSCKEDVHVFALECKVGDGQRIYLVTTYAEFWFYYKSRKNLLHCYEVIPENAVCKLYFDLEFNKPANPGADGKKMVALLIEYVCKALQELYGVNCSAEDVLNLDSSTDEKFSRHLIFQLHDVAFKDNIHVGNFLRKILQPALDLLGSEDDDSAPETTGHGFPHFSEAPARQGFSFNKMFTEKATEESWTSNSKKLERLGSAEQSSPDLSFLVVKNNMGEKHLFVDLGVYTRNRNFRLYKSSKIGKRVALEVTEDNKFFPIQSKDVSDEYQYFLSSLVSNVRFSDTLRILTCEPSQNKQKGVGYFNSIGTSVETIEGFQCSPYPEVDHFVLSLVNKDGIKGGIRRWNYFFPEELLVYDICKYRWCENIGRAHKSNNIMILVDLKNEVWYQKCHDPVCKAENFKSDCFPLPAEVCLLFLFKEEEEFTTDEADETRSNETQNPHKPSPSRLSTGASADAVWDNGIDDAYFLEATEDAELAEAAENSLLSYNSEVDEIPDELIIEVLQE

The target in experiment [2] is T1, PrimPol WT (human). The source holds these as a separate data set.

Molecule “full-length (FL) human PolDIP2 tagged with C-terminal hexa-histidine (from UniProt Q9Y2S7 52-368) (natural protein)” came in with a primer extension by 150 nM PrimPol on a 25/70-mer primer/template with increasing FL-PolDIP2 (up to 500 nM): percent of DNA substrate extended >3 nt with PrimPol WT (human) [1] of 46%. In addition, the filter binding of [α-32P]dCTP (1 μM dCTP, 300 nM primer/template, 600 nM PrimPol and 600 nM FL-PolDIP2, Ca2+, 37°C), against PrimPol alone in the experiment with PrimPol WT (human) [2] turned out to be 3 fold.

B1: T3-PolDIP2 (AA 217–368), C-terminal fragment with the ApaG-like domain (domain or fragment)
chain: LRAWQEKNHPWLELSDVHRETTENIRVTVIPFYMGMREAQNSHVYWWRYCIRLENLDSDVVQLRERHWRIFSLSGTLETVRGRGVVGREPVLSKEQPAFQYSSHVSLQASSGHMWGTFRFERPDGSHFDVRIPPFSLESNKDEKTPPSGLHW
In the experiment with PrimPol WT (human) [1], B1 gave a primer extension by 150 nM PrimPol on a 25/70-mer primer/template with increasing T3-PolDIP2 (from 150 nM): percent of DNA substrate extended >3 nt of 32%.
